Here are results for three sequences from the supplement of paper PMC5998384.

For series [1], the system named is HeLa Kyoto. The series can be described thus: solubility in G1/S (NP-40 vs SDS abundance) (log2 ratio); higher = more soluble. To be noted: cell cycle stage: G1/S.
The test system of series [2] is HeLa Kyoto. Description: melting temperature (median over replicates), in situ; higher = more thermally stable.
The test system of series [3] is HeLa Kyoto. The series can be described thus: solubility change mitosis vs G1/S (difference of NP-40 vs SDS log2 ratios) (log2 ratio difference); higher = more soluble in mitosis.
Series [4] relates to HeLa Kyoto. The series can be described thus: thermal stability score vs G1/S (z-score of summed log2 fold changes over temperatures); higher = more thermally stable than in G1/S.
The mark [5] stands for this setting: cell cycle stage: early G1 (4.5 h after nocodazole release).
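Throughout, for melting temperature (median over replicates), in situ: HeLa Kyoto cells synchronized by double thymidine or nocodazole block, proteins quantified by TMT10plex mass spectrometry, three independent biological replicates.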
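Throughout, for solubility change mitosis vs G1/S (difference of NP-40 vs SDS log2 ratios): synchronized HeLa Kyoto cells (double thymidine block for G1/S, nocodazole release for mitosis), protein amounts in NP-40 versus SDS lysates quantified by mass spectrometry, three biological replicates.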
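Throughout, for solubility in G1/S (NP-40 vs SDS abundance): HeLa Kyoto cells arrested at G1/S by double thymidine block, proteins quantified by TMT10plex mass spectrometry in mild NP-40 versus SDS extracts, three biological replicates.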
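Throughout, for thermal stability score vs G1/S (z-score of summed log2 fold changes over temperatures): synchronized HeLa Kyoto cells, proteins quantified by TMT10plex mass spectrometry, three biological replicates, mitosis taken 0.5 h after nocodazole release, G1/S directly after double thymidine block.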

As to “MGARASGGPLARAGLLLLLLLLLLLGLLAPGAQGARGRGGAEKNSYRRTVNTFSQSVSSLFGEDNVRAAQKFLARLTERFVLGVDMFVETLWKVWTELLDVLGLDVSNLSQYFSPASVSSSPARALLLVGVVLLAYWFLSLTLGFTFSVLHVVFGRFFWIVRVVLFSMSCVYILHKYEGEPENAVLPLCFVVAVYFMTGPMGFYWRSSPSGPSNPSNPSVEEKLEHLEKQVRLLNIRLNRVLESLDRSKDK [BRI3BP]”, the “solubility in G1/S (log2)” value in series [1] is -0.138. In addition, the melting temperature in series [2] (cell cycle stage: G1/S) amounted to 55.1 °C; in series [2] (cell cycle stage: mitosis) it was 53.1 °C. Also, the “solubility change mitosis (log2)” value in series [3] came out at 0.0237. For the same sequence, the thermal stability score is -0.814 in series [4] (setting [5]) and -3.07 in series [4] (cell cycle stage: mitosis).

In the case of “MGAYARASGVCARGCLDSAGPWTMSRALRPPLPPLCFFLLLLAAAGARAGGYETCPTVQPNMLNVHLLPHTHDDVGWLKTVDQYFYGIKNDIQHAGVQYILDSVISALLADPTRRFIYVEIAFFSRWWHQQTNATQEVVRDLVRQGRLEFANGGWVMNDEAATHYGAIVDQMTLGLRFLEDTFGNDGRPRVAWHIDPFGHSREQASLFAQMGFDGFFFGRLDYQDKWVRMQKLEMEQVWRASTSLKPPTADLFTGVLPNGYNPPRNLCWDVLCVDQPLVEDPRSPEYNAKELVDYFLNVATAQGRYYRTNHTVMTMGSDFQYENANMWFKNLDKLIRLVNAQQAKGSSVHVLYSTPACYLWELNKANLTWSVKHDDFFPYADGPHQFWTGYFSSRPALKRYERLSYNFLQVCNQLEALVGLAANVGPYGSGDSAPLNEAMAVLQHHDAVSGTSRQHVANDYARQLAAGWGPCEVLLSNALARLRGFKDHFTFCQQLNISICPLSQTAARFQVIVYNPLGRKVNWMVRLPVSEGVFVVKDPNGRTVPSDVVIFPSSDSQAHPPELLFSASLPALGFSTYSVAQVPRWKPQARAPQPIPRRSWSPALTIENEHIRATFDPDTGLLMEIMNMNQQLLLPVRQTFFWYNASIGDNESDQASGAYIFRPNQQKPLPVSRWAQIHLVKTPLVQEVHQNFSAWCSQVVRLYPGQRHLELEWSVGPIPVGDTWGKEVISRFDTPLETKGRFYTDSNGREILERRRDYRPTWKLNQTEPVAGNYYPVNTRIYITDGNMQLTVLTDRSQGGSSLRDGSLELMVHRRLLKDDGRGVSEPLMENGSGAWVRGRHLVLLDTAQAAAAGHRLLAEQEVLAPQVVLAPGGGAAYNLGAPPRTQFSGLRRDLPPSVHLLTLASWGPEMVLLRLEHQFAVGEDSGRNLSAPVTLNLRDLFSTFTITRLQETTLVANQLREAASRLKWTTNTGPTPHQTPYQLDPANITLEPMEIRTFLASVQWKEVDG [MAN2B1]”, the “solubility in G1/S (log2)” value in series [1] was 0.313. Also, the melting temperature in series [2] (cell cycle stage: G1/S) stood at 57.1 °C; in series [2] (cell cycle stage: mitosis), 56.6 °C. In addition, in series [3], the “solubility change mitosis (log2)” value was -0.109. Besides, the thermal stability score was -0.143 in series [4] (setting [5]) and -1.1 in series [4] (cell cycle stage: mitosis).

“MGAYLSQPNTVKCSGDGVGAPRLPLPYGFSAMQGWRVSMEDAHNCIPELDSETAMFSVYDGHGGEEVALYCAKYLPDIIKDQKAYKEGKLQKALEDAFLAIDAKLTTEEVIKELAQIAGRPTEDEDEKEKVADEDDVDNEEAALLHEEATMTIEELLTRYGQNCHKGPPHSKSGGGTGEEPGSQGLNGEAGPEDSTRETPSQENGPTAKAYTGFSSNSERGTEAGQVGEPGIPTGEAGPSCSSASDKLPRVAKSKFFEDSEDESDEAEEEEEDSEECSEEEDGYSSEEAENEEDEDDTEEAEEDDEEEEEEMMVPGMEGKEEPGSDSGTTAVVALIRGKQLIVANAGDSRCVVSEAGKALDMSYDHKPEDEVELARIKNAGGKVTMDGRVNGGLNLSRAIGDHFYKRNKNLPPEEQMISALPDIKVLTLTDDHEFMVIACDGIWNVMSSQEVVDFIQSKISQRDENGELRLLSSIVEELLDQCLAPDTSGDGTGCDNMTCIIICFKPRNTAELQPESGKRKLEEVLSTEGAEENGNSDKKKKAKRD [PPM1G]”: in series [1], the “solubility in G1/S (log2)” value came out at 0.104. Also, the melting temperature in series [2] (cell cycle stage: G1/S) was determined as 48.4 °C; in series [2] (cell cycle stage: mitosis) it was 49.4 °C. For the same sequence, the “solubility change mitosis (log2)” value in series [3] was -0.0729. In addition, the thermal stability score was found to be 2.65 in series [4] (setting [5]) and 8.41 in series [4] (cell cycle stage: mitosis).
